Test results published in publication PMC11156954 (2024).

What follows are binders tested against hMRP5-Δ1-94-8xHis (human, UniProt O15440 95-1437, RED-tris-NTA 2nd Generation dye on the His tag) (assay: MST).
hMRP5-Δ1-94-8xHis, sequence (O15440 95-1437, stated change not applied): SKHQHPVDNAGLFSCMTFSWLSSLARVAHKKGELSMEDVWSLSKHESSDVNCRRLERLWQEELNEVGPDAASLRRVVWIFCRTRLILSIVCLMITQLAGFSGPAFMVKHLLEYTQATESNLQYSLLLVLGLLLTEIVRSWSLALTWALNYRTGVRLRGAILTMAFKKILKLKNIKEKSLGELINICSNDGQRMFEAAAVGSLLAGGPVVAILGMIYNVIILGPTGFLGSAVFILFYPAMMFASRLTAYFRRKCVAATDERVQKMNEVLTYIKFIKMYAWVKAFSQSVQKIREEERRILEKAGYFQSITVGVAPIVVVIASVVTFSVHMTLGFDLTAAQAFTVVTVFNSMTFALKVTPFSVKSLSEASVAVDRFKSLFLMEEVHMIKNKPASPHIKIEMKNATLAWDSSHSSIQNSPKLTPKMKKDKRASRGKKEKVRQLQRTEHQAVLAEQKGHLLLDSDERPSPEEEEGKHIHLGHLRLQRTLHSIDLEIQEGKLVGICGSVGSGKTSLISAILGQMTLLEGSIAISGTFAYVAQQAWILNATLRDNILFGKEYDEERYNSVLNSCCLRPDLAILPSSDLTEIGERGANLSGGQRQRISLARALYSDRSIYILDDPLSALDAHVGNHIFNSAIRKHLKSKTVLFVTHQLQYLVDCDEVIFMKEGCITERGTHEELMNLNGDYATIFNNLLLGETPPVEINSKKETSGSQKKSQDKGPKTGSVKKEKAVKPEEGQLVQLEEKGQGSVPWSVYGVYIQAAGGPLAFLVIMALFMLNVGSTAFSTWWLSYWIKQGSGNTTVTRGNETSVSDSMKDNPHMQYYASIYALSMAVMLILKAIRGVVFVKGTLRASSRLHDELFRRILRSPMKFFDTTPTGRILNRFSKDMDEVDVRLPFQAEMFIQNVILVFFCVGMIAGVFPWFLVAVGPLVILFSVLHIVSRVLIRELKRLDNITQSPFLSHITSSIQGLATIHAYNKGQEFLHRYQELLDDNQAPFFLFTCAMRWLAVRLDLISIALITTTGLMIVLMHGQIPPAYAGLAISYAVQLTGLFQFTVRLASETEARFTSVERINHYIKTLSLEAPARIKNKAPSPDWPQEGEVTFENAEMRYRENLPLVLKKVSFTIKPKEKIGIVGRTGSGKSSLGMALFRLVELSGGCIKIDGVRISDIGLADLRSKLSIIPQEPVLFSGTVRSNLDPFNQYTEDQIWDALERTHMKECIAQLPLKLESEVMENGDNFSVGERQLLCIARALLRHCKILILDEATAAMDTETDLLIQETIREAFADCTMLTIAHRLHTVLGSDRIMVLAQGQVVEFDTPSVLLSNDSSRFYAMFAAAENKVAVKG

Binder | Kd [µM]
DSKFRRTRPLECQDALETAARAEGLSLDASMHSQLRILDEE [Asp35-Glu75 peptide of hMRP5] | 34.6
RTRPLECQDALETAARAEGLSLDASMHSQLR [Arg40-Arg70 peptide of hMRP5] | 50.7

Binders with a lower Kd, results first:

Kd [µM] | Binder
24.1 | CQDALETAARAEGLSLDAS [Cys46-Ser64 peptide of hMRP5]
24.4 | DIGKEYIIPSPGYRSVRERTS [Asp5-Ser25 peptide of hMRP5]
2.66 | CSKFRRTRPLECQDALETAARAEGLSLDASMHSQLRILDEC [MRP5 potential peptide inhibitor (M5PI)]
